Test results: patent publication US20210269521A1 (L AND L BIOPHARMA, published 2021)

Experiments:
[1] = biological target: T1, human PD-1 extracellular domain protein expressed in Example 1 (tag not stated) (human, UniProt Q15116 25-170); test: ELISA, PD-1 coated
T1 construct: extracellular domain; also called PD-1 protein; not shown: human IgG1 Fc or his tag
Description: (§1) PD-1 expressed in Example 1 was diluted to a concentration of 1 μg/ml with PBS buffer, pH 7.4, and added to a 96-well microplate (Corning, CLS3590-100EA) at 50 μl per well, thereby incubating in an incubator at 37° C. for 2 hours. After discarding the liquid, a blocking solution of 5% skimmed milk (Shanghai Shenggong Biological Engineering Co., Ltd., A600669-0250) diluted with PBS was added at 200 μl per well, followed by incubating at 37° C. for 3 hours or 4° C. overnight (16-18 hours)) for blocking. Subsequently, the blocking solution was discarded, and the microplate was washed 5 times with PBST buffer (pH 7.4 PBS containing 0.05% tween-20). […] Subsequently, the microplate was washed 5 times with PBST, then 50 μl/well of 1:2500 diluted HRP-labeled secondary antibody (Jackson Immuno Research, 115-035-003) was added, thereby incubating at 37° C. for 1 hour. After washing the microplate 5 times with PBST, 50 μl/well TMB chromogenic substrate (KPL, 52-00-03) was added, then incubated at room temperature for 5-10 min. Finally, 50 μl/well of 1M H₂SO₄ was added to stop the reaction. […] Go microplate reader (ThermoFisher, 51119200) was used to read the absorption value at 450 nm and the EC50 based on the OD value was calculated.

[2] = biological target: T1, human PD-1 extracellular domain protein …; test: ELISA, EC50 of bispecific over EC50 of the monoclonal control
Description: After washing the microplate 5 times with PBST, 50 μl/well TMB chromogenic substrate (KPL, 52-00-03) was added to the microplate, followed by incubating at room temperature for 10-15 min.
as §1

[3] = biological target: T2, human TIM-3 extracellular domain-human IgG1 Fc fusion protein (human, UniProt Q8TDQ0 22-199); test: ELISA
T2 construct: Made in house or bought (ACROBiosystems TM3-H5258); also called TIM-3-hFc; not shown: human IgG1 Fc
Description: Goat-anti-hFc (Jackson, 109-005-008) was diluted to a concentration of 1 μg/ml with PBS buffer (pH 7.4) and added to a 96-well microplate (Corning, CLS3590-100EA) at a volume of 50 μl/well, then incubated in an incubator at 37° C. for 2 hours (Or the antigen TIM-3 was directly used to coat the microplate with a concentration of 0.5 μg/ml, and then the antibody to be tested was directly added). After discarding the liquid, a blocking solution of 5% skimmed milk (skimmed milk powder purchased from Bright) diluted with PBS was added at 200 μl per well, and the microplate was incubated for 2.5 hours at 37° C. or overnight (16-18 hours) at 4° C. for blocking. The blocking solution was discarded, and the microplate was washed 5 times with PBST buffer (PBS with pH 7.4 containing 0.05% tween-20), then 50 μl/well of 0.5 μg/ml TIM-3-hFc (Example 1) was added and incubated for 2 hours in a 37° C. incubator. After incubation, the microplate was washed 6 times with PB ST. 50 μl/well of supernatant (containing testing antibody) or different concentrations of the antibody to be tested was added, and the microplate was incubated at 37° C. for 2 hours and washed 5 times with PBST. 50 μl/well of 1:2500 diluted HRP-labeled secondary antibody (Jackson Immuno Research, 115-035-003) was added to the microplate, incubating at 37° C. for 1 hour. After washing the microplate 5 times with PBST, 50 μl/well TMB chromogenic substrate (KPL, 52-00-03) was added to the microplate, followed by incubating at room temperature for 10-15 min.

[4] = biological target: T2, human TIM-3 extracellular domain-human …; test: ELISA, EC50 of bispecific over EC50 of the monoclonal control

Row | Binder | EC50 [1] | Multiple of EC50 variation [2] | EC50 [3] | Multiple of EC50 variation [4]
1 | bispecific antibody LB1414 (bispecific antibody, human IgG4 S228P, kappa) light: EIVLTQSPATLSLSPGERATLSCRASKGVSTSGYSYLHWYQQKPGQAPRLLIYLASYLESGVPARFSGSGSGTDFTLTISSLEPEDFAVYYCQHSRDLPLTFGGGTKVEIKRTVAAPSVFIFPPSDEQLKSGTASVVCLLNNFYPREAKVQWKVDNALQSGNSQESVTEQDSKDSTYSLSSTLTLSKADYEKHKVYACEVTHQGLSSPVTKSFNRGECGGGGSGGGGSGGGGSEVQLVESGGGLVKPGGSLRLSCAASGFTFSDYYMAWVRQAPGKGLEWVANINYDGSNTYYLDSLKSRFTISRDNAKNSLYLQMNSLRAEDTAVYYCARGLYYYGGNYFAYWGQGTLVTVSSGGGGSGGGGSGGGGSDIQMTQSPSSLSASVGDRVTITCHASQGISSNIGWLQQKPGKAFKGLIYQGSNLEDGVPSRFSGSGSGADYTLTISSLQPEDFATYYCVQFAQFPPTFGQGTKLEIK heavy: not shown | 0.045 nM | 0.47 ratio | 3.52 nM | 4.5 ratio
2 | bispecific antibody LB242 (bispecific antibody, human IgG4 S228P, kappa) light: EIVLTQSPATLSLSPGERATLSCRASKGVSTSGYSYLHWYQQKPGQAPRLLIYLASYLESGVPARFSGSGSGTDFTLTISSLEPEDFAVYYCQHSRDLPLTFGGGTKVEIKRTVAAPSVFIFPPSDEQLKSGTASVVCLLNNFYPREAKVQWKVDNALQSGNSQESVTEQDSKDSTYSLSSTLTLSKADYEKHKVYACEVTHQGLSSPVTKSFNRGECGGGGSGGGGSGGGGSEVQLVESGGGLVKPGGSLRLSCAASGFTFSDYYMAWVRQAPGKGLEWVANINYDGSNTYYLDSLKSRFTISRDNAKNSLYLQMNSLRAEDTAVYYCARGLYYYGGNYFAYWGQGTLVTVSSGGGGSGGGGSGGGGSDIQMTQSPSSLSASVGDRVTITCHASQGISSNIGWLQQKPGKAFKGLIYQGSNLEDGVPSRFSGSGSGADYTLTISSLQPEDFATYYCVQFAQFPPTFGQGTKLEIK heavy: not shown | 0.084 nM | 0.32 ratio | 0.124 nM | 0.78 ratio
3 | bispecific antibody LB245 (bispecific antibody, human IgG4 S228P, kappa) light: EIVLTQSPATLSLSPGERATLSCRASKGVSTSGYSYLHWYQQKPGQAPRLLIYLASYLESGVPARFSGSGSGTDFTLTISSLEPEDFAVYYCQHSRDLPLTFGGGTKVEIKRTVAAPSVFIFPPSDEQLKSGTASVVCLLNNFYPREAKVQWKVDNALQSGNSQESVTEQDSKDSTYSLSSTLTLSKADYEKHKVYACEVTHQGLSSPVTKSFNRGECGGGGSGGGGSGGGGSEVQLVESGGGLVKPGGSLRLSCAASGFTFSDYYMAWVRQAPGKGLEWVANINYDGSNTYYLDSLKSRFTISRDNAKNSLYLQMNSLRAEDTAVYYCARGLYYYGGNYFAYWGQGTLVTVSSGGGGSGGGGSGGGGSDIQMTQSPSSLSASVGDRVTITCHASQGISSNIGWLQQKPGKAFKGLIYQGSNLEDGVPSRFSGSGSGADYTLTISSLQPEDFATYYCVQFAQFPPTFGQGTKLEIK heavy: not shown | 0.342 nM | 1.3 ratio | 0.391 nM | 2.46 ratio
4 | bispecific antibody LB243 (bispecific antibody, human IgG4 S228P, kappa) light: DIQMTQSPSSLSASVGDRVTITCHASQGISSNIGWLQQKPGKAFKGLIYQGSNLEDGVPSRFSGSGSGADYTLTISSLQPEDFATYYCVQFAQFPPTFGQGTKLEIKGGGGSGGGGSGGGGSEVQLVESGGGLVKPGGSLRLSCAASGFTFSDYYMAWVRQAPGKGLEWVANINYDGSNTYYLDSLKSRFTISRDNAKNSLYLQMNSLRAEDTAVYYCARGLYYYGGNYFAYWGQGTLVTVSSGGGGSGGGGSGGGGSEIVLTQSPATLSLSPGERATLSCRASKGVSTSGYSYLHWYQQKPGQAPRLLIYLASYLESGVPARFSGSGSGTDFTLTISSLEPEDFAVYYCQHSRDLPLTFGGGTKVEIKRTVAAPSVFIFPPSDEQLKSGTASVVCLLNNFYPREAKVQWKVDNALQSGNSQESVTEQDSKDSTYSLSSTLTLSKADYEKHKVYACEVTHQGLSSPVTKSFNRGECGGGGSGGGGSGGGGSEVQLVESGGGLVKPGGSLRLSCAASGFTFSDYYMAWVRQAPGKGLEWVANINYDGSNTYYLDSLKSRFTISRDNAKNSLYLQMNSLRAEDTAVYYCARGLYYYGGNYFAYWGQGTLVTVSSGGGGSGGGGSGGGGSDIQMTQSPSSLSASVGDRVTITCHASQGISSNIGWLQQKPGKAFKGLIYQGSNLEDGVPSRFSGSGSGADYTLTISSLQPEDFATYYCVQFAQFPPTFGQGTKLEIK heavy: not shown | 0.214 nM | 0.81 ratio | 0.216 nM | 1.36 ratio
5 | bispecific antibody LB244 (bispecific antibody, human IgG4 S228P, kappa) light: DIQMTQSPSSLSASVGDRVTITCHASQGISSNIGWLQQKPGKAFKGLIYQGSNLEDGVPSRFSGSGSGADYTLTISSLQPEDFATYYCVQFAQFPPTFGQGTKLEIKGGGGSGGGGSGGGGSEVQLVESGGGLVKPGGSLRLSCAASGFTFSDYYMAWVRQAPGKGLEWVANINYDGSNTYYLDSLKSRFTISRDNAKNSLYLQMNSLRAEDTAVYYCARGLYYYGGNYFAYWGQGTLVTVSSGGGGSGGGGSGGGGSEIVLTQSPATLSLSPGERATLSCRASKGVSTSGYSYLHWYQQKPGQAPRLLIYLASYLESGVPARFSGSGSGTDFTLTISSLEPEDFAVYYCQHSRDLPLTFGGGTKVEIKRTVAAPSVFIFPPSDEQLKSGTASVVCLLNNFYPREAKVQWKVDNALQSGNSQESVTEQDSKDSTYSLSSTLTLSKADYEKHKVYACEVTHQGLSSPVTKSFNRGEC heavy: not shown | 0.18 nM | 0.68 ratio | 0.21 nM | 1.32 ratio

The next lines start with the values.

Row | EC50 [1] | Multiple of EC50 variation [2] | EC50 [3] | Multiple of EC50 variation [4] | Binder
6 | 0.079 nM | 0.82 ratio | 3.42 nM | 4.37 ratio | bispecific antibody LB1412 (bispecific antibody, human IgG4 S228P, kappa) light: EIVLTQSPATLSLSPGERATLSCRASKGVSTSGYSYLHWYQQKPGQAPRLLIYLASYLESGVPARFSGSGSGTDFTLTISSLEPEDFAVYYCQHSRDLPLTFGGGTKVEIKRTVAAPSVFIFPPSDEQLKSGTASVVCLLNNFYPREAKVQWKVDNALQSGNSQESVTEQDSKDSTYSLSSTLTLSKADYEKHKVYACEVTHQGLSSPVTKSFNRGEC heavy: not shown
7 | 0.066 nM | 0.69 ratio | 0.521 nM | 0.67 ratio | bispecific antibody LB1413 (bispecific antibody, human IgG4 S228P, kappa, ab6VL-(G4S)3-ab6VH-(G4S)3-PemVL-κ with PemVH-hIgG4) light: DIQMTQSPSSLSASVGDRVTITCHASQGISSNIGWLQQKPGKAFKGLIYQGSNLEDGVPSRFSGSGSGADYTLTISSLQPEDFATYYCVQFAQFPPTFGQGTKLEIKGGGGSGGGGSGGGGSEVQLVESGGGLVKPGGSLRLSCAASGFTFSDYYMAWVRQAPGKGLEWVANINYDGSNTYYLDSLKSRFTISRDNAKNSLYLQMNSLRAEDTAVYYCARGLYYYGGNYFAYWGQGTLVTVSSGGGGSGGGGSGGGGSEIVLTQSPATLSLSPGERATLSCRASKGVSTSGYSYLHWYQQKPGQAPRLLIYLASYLESGVPARFSGSGSGTDFTLTISSLEPEDFAVYYCQHSRDLPLTFGGGTKVEIKRTVAAPSVFIFPPSDEQLKSGTASVVCLLNNFYPREAKVQWKVDNALQSGNSQESVTEQDSKDSTYSLSSTLTLSKADYEKHKVYACEVTHQGLSSPVTKSFNRGEC heavy: not shown
8 | 0.365 nM | 3.8 ratio | 0.547 nM | 0.7 ratio | bispecific antibody LB241 (bispecific antibody, human IgG4 S228P, kappa) light: DIQMTQSPSSLSASVGDRVTITCHASQGISSNIGWLQQKPGKAFKGLIYQGSNLEDGVPSRFSGSGSGADYTLTISSLQPEDFATYYCVQFAQFPPTFGQGTKLEIKGGGGSGGGGSGGGGSEVQLVESGGGLVKPGGSLRLSCAASGFTFSDYYMAWVRQAPGKGLEWVANINYDGSNTYYLDSLKSRFTISRDNAKNSLYLQMNSLRAEDTAVYYCARGLYYYGGNYFAYWGQGTLVTVSSGGGGSGGGGSGGGGSEIVLTQSPATLSLSPGERATLSCRASKGVSTSGYSYLHWYQQKPGQAPRLLIYLASYLESGVPARFSGSGSGTDFTLTISSLEPEDFAVYYCQHSRDLPLTFGGGTKVEIKRTVAAPSVFIFPPSDEQLKSGTASVVCLLNNFYPREAKVQWKVDNALQSGNSQESVTEQDSKDSTYSLSSTLTLSKADYEKHKVYACEVTHQGLSSPVTKSFNRGEC heavy: not shown
